In test [1] the target is Fyn(R96I)-SH3, 6xHis C-terminal fusion (human) (UniProt P06241). As to the kind of experiment: ITC.
Test [2] deals with Fyn(WT)-SH3, 6xHis C-terminal fusion (human) (UniProt P06241). Description: ITC.
Test [3] concerns the target Nef (Human immunodeficiency virus 1) (UniProt P04324). The conditions noted are these: cited from earlier work.

Fyn SH3 SH3, sequence (P06241 79-146): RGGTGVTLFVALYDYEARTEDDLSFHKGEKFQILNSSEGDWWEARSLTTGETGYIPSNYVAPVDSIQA
Fyn(R96I)-SH3, 6xHis C-terminal fusion (human), sequence (P06241 86-143 R96I): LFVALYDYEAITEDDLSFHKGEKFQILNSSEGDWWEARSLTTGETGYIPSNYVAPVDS
Fyn(WT)-SH3, 6xHis C-terminal fusion (human), sequence (P06241 85-141): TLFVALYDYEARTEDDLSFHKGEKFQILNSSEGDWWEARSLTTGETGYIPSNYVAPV

Regarding “ALIXPI peptide (Alix residues 737 to 760) (from UniProt Q8WUM4 737-760)”, the results for the equilibrium dissociation constant (Kd) in test [1] and in test [2] were 54 µM and 160 µM, respectively.

Regarding Fyn SH3 SH3 (from UniProt P06241), the equilibrium dissociation constant (Kd) in test [3] is over 20 µM.

The record behind these values is paper PMC3378324.
